Target: elastase
Experiment: Given as 'coupling constant'. Second-order association with elastase, 8 nM each, residual elastase activity on succinyl-Ala-Ala-Ala-pNA at 410 nm over 1-10 min (Beatty et al.)

| kon | Substance |
| --- | --- |
| 1.7e+06 M⁻¹ s⁻¹ | Human blood plasma AT (alpha-1-antitrypsin, A9204, Sigma) (from UniProt P01009 25-418) |
| 1.6e+06 M⁻¹ s⁻¹ | wild type E. coli recombinant AT (human alpha-1-antitrypsin) (from UniProt P01009 26-418) |
| 1.7e+06 M⁻¹ s⁻¹ | Mutant recombinant AT F51L/M374I (human alpha-1-antitrypsin mutein, Korean Patent No. 133252) (from UniProt P01009 25-418) |
| 1.8e+06 M⁻¹ s⁻¹ | Mutant recombinant AT K168C/F189C (with disulfide bond) (human alpha-1-antitrypsin mutein) (from UniProt P01009 25-418) |
